{
  "source": "paper doi:10.1101/2022.09.20.508747",
  "about": "“Affinity-matured homotypic interactions induce spectrum of PfCSP-antibody structures that influence protection from malaria infection” (bioRxiv, 2022)",
  "conditions_in_all_cases": "both partners purified",
  "key": {"[1]": {"molecular_target": "T1, NPNA4 peptide, biotinylated (for BLI) (Plasmodium falciparum)", "T1 construct": "source: synthetic peptide, InnoPep Inc", "T1 chain": "NPNANPNANPNANPNA-{Biotin′}", "assay": "BLI"}, "[2]": {"molecular_target": "T2, NPNA8 peptide (for cryo-EM) (Plasmodium falciparum)", "T2 construct": "source: synthetic peptide, InnoPep Inc", "T2 chain": "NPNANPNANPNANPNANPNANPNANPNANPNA", "assay": "cryo-EM structure"}, "[3]": {"molecular_target": "T3, NPNA8 peptide, biotinylated (for BLI) (Plasmodium falciparum)", "T3 construct": "source: synthetic peptide, InnoPep Inc", "T3 chain": "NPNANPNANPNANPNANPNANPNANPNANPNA", "assay": "BLI"}},
  "note": "Primed or numbered codes have the meaning given here. No end group written: not given here. Biotin′ = biotin",
  "data": [
    {"binder": "227 Fab (Fab, V domains shown, also called mAb 227; source: ExpiCHO cells, purified (mAb Select PrismA or Capture Select, SEC)) VH: QVQLVQSGGGVVQPGRSLRLSCVTSGFTFPAFGMHWVRQAPGKGLEWVAVIWYDGSKKYYADSVRGRFTISRDNSRNTLYLQMHSLRAEDTAVYYCARVKNYESSGYSQCLDYWGQGVLVTVAS VL: QSVLTQPPSVSGAPGQRVTISCTGSSSNIGAGYDVHWYQQLPGTAPKLLIYGNGNRPSGVPDRFSGSKSGTSVSLAITGLQAEDEADYYCQSYDSSLSAFVFGTGTKVTVL", "values": [
      {"measurement": "binding result", "setting": "[1]", "value": "binds"},
      {"measurement": "stoichiometry N", "setting": "[2]", "value": 4, "unit": "Fabs per NPNA8 peptide"}
    ]},
    {"binder": "311 Fab (Fab, V domains shown, source: ExpiCHO cells, purified (mAb Select PrismA or Capture Select, SEC)) VH: QVQLVESGGGVVPPGRSLRLSCATSGFTFSNYGMHWVRQAPGKGLEWVAIIWYDGSRNFYAASVEGRFTISRDNSKNTLYLQMNSLRVEDTAVYYCARAAYYDTSGYGDYWGQGTLVTVSS VL: QSVLTQPPSVSGAPGQTVTISCTGGSSNIGAGYDVHWYQQLPGTAPKLLIYGNINRPSGVPDRFSGSKSGTSASLAITGLQAEDEADYYCQSYDRRLSGSWVFGGGTKLTVL", "values": [
      {"measurement": "binding result", "setting": "[3]", "value": "binds"},
      {"measurement": "binding result", "setting": "[1]", "value": "binds"}
    ]},
    {"binder": "239 Fab (Fab, V domains shown, also called mAb 239; source: ExpiCHO cells, purified (mAb Select PrismA or Capture Select, SEC)) VH: QVQLVESGGGVVQPGRSLRLSCAASRLTFRNFGMHWVRQTPGKGLEWVAVIWHDGSNKFYADSVEGRFTISRDNSKNTLYLQMNSLRDEDTAIYYCAKDWGGASDRVFDYWGRGTLVIVSS VL: DIQMTQSPSTLSASVGDRVTITCRASQSVSTSLAWYQQKPGKAPNLLIYQASTLYRGVPSRFSGSGSGTEFTLTIGSLQPDDFATYYCQHYNSYSRITFGQGTRLEIK", "values": [
      {"measurement": "binding result", "setting": "[3]", "value": "binds"},
      {"measurement": "binding result", "setting": "[1]", "value": "binds"}
    ]},
    {"binder": "356 Fab (Fab, V domains shown, also called mAb 356; source: ExpiCHO cells, purified (mAb Select PrismA or Capture Select, SEC)) VH: QVQLVESGGGVVQPGRSLRLSCAASGFTFRNFGMHWVRQTPGKGLEWVAVIWHDGSNKFYADSVEGRFTISRDNSKNMIYLQMNSLRVEDTAIYYCARDSLFYDHDNSGYYGYWGQGTLVTVSS VL: QIVMTQSPATVSVSPGERATLSCRASRSVTSKLAWYQQKPGQAPRLLIYGASTRATGIPARFSGSGSGTEFTLTISSLQSEDFAVYFCQQYNNGFTFGPGTKVDFK", "values": [
      {"measurement": "binding result", "setting": "[3]", "value": "binds"},
      {"measurement": "binding result", "setting": "[1]", "value": "binds"}
    ]},
    {"binder": "311R Fab (Fab, V domains shown, also called Fab311R; germline-reverted 311; source: ExpiCHO cells, purified (mAb Select PrismA or Capture Select, SEC)) VH: QVQLVESGGGVVPPGRSLRLSCATSGFTFSSYGMHWVRQAPGKGLEWVAIIWYDGSNKFYAASVKGRFTISRDNSKNTLYLQMNSLRVEDTAVYYCARAAYYDTSGYGDYWGQGTLVTVSS VL: QSVLTQPPSVSGAPGQTVTISCTGGSSNIGAGYDVHWYQQLPGTAPKLLIYGNINRPSGVPDRFSGSKSGTSASLAITGLQAEDEADYYCQSYDSSLSGSWVFGGGTKLTVL", "values": [
      {"measurement": "binding result", "setting": "[3]", "value": "binds"},
      {"measurement": "binding result", "setting": "[1]", "value": "binds"}
    ]},
    {"binder": "356R Fab (Fab, V domains shown, also called germline-reverted 356; source: ExpiCHO cells, purified (mAb Select PrismA or Capture Select, SEC)) VH: QVQLVESGGGVVQPGRSLRLSCAASGFTFSSYGMHWVRQTPGKGLEWVAVIWHDGSNKFYADSVKGRFTISRDNSKNMIYLQMNSLRVEDTAIYYCARDSLFYDHDNSGYYGYWGQGTLVTVSS VL: EIVMTQSPATVSVSPGERATLSCRASQSVTSKLAWYQQKPGQAPRLLIYGASTRATGIPARFSGSGSGTEFTLTISSLQSEDFAVYFCQQYNNGFTFGPGTKVDFK", "values": [
      {"measurement": "binding result", "setting": "[3]", "value": "binds"},
      {"measurement": "fold higher apparent affinity than 356", "setting": "[1]", "value": "~2", "unit": "fold"}
    ]},
    {"binder": "239R Fab (Fab, V domains shown, also called germline-reverted 239; source: ExpiCHO cells, purified (mAb Select PrismA or Capture Select, SEC)) VH: QVQLVESGGGVVQPGRSLRLSCAASRLTFSSYGMHWVRQTPGKGLEWVAVIWHDGSNKFYADSVKGRFTISRDNSKNTLYLQMNSLRDEDTAIYYCAKDWGGASDRVFDYWGRGTLVIVSS VL: DIQMTQSPSTLSASVGDRVTITCRASQSVSTSLAWYQQKPGKAPNLLIYQASTLYTGVPSRFSGSGSGTEFTLTIGSLQPDDFATYYCQHYNSYSRITFGQGTRLEIK", "values": [
      {"measurement": "binding result", "setting": "[3]", "value": "binds"},
      {"measurement": "fold lower apparent affinity than 239", "setting": "[1]", "value": "~2", "unit": "fold"}
    ]},
    {"binder": "334 Fab (Fab, V domains shown, also called mAb 334; source: ExpiCHO cells, purified (mAb Select PrismA or Capture Select, SEC)) VH: QVQLVESGGGVVQPGRSLTLSCAASGFTFSNYGMHWVRQTPGKGLAWVAIIWYDGSKTYYEDSVKGRFTISRDNSKNTLYLQMNSLRVDDTAVYYCARVRHSSSRHGSAFDLWGQGTLVTVSS VL: VIQMTQSPSTLSASVGDRVTITCRASQSVSTWLAWYQQKPGQGPKLLIYEASSLESGVPSRFSGSGSGTEFTLTISSLQPDDFATYYCQQYNSYSFWTFGQGTKVEIK", "values": [
      {"measurement": "binding result", "setting": "[3]", "value": "binds"},
      {"measurement": "binding result", "setting": "[1]", "value": "binds"}
    ]},
    {"binder": "337 Fab (Fab, V domains shown, also called mAb 337; source: ExpiCHO cells, purified (mAb Select PrismA or Capture Select, SEC)) VH: QVQLVESGGGVVQPGRSLRLSCAASGFSFSTYGMHWVRQAPGKGLEWVALIWHDGSKKFYSESVRGRFTISRDNSMDTLYLQMSSLRAEDTAVYYCARDGADYFDSTGGAFDIWGQGTMVIVSS VL: EIVMTQSPATLSVSPGERATLSCRASQSVSSNLAWYQQKPGQAPRLLIYGASTRATGIPARFSGSGSGTEFTLTISSLQSEDFATYYCQQYKTWWTFGQGTKVEIK", "values": [
      {"measurement": "binding result", "setting": "[3]", "value": "binds"},
      {"measurement": "binding result", "setting": "[1]", "value": "binds"}
    ]},
    {"binder": "364 Fab (Fab, V domains shown, also called mAb 364; source: ExpiCHO cells, purified (mAb Select PrismA or Capture Select, SEC)) VH: QVQLVESGGGVVQPGGSLRLSCAASGFTFSGYGMHWVRQVPGKGLEWVAIIWFDGSQKYYADSVQGRFTISRDNSKKTLFLRMNSLRAEDTAVYYCAKVHDDEPTQDYWGQGTLVTVSS VL: DIQMTQSPSTLSASVGDRVTITCRASQGISTSLAWYQQKPGKAPKLLIYKASSLESGVPSRFSGSGSGTEFTLTITSLQPEDFATYYCQQYKRYWTFGQGTKVEIK", "values": [
      {"measurement": "binding result", "setting": "[3]", "value": "binds"},
      {"measurement": "binding result", "setting": "[1]", "value": "binds"}
    ]}
  ]
}
